The values below are quoted from earlier work in publication PMC3831880.

The target of this data set is HPr (Escherichia coli) (UniProt P0AA04). The data set can be described thus: PRE titration.

The term Kd denotes the equilibrium constant for the complex coming apart. In the case of “Enzyme I N-terminal domain (EIN) N-terminal domain (from UniProt P08839)”, the Kd was 7 µM.
